The text below walks through data of article PMC12119765, “Unveiling the potential of copper-61 vs. gallium-68 for SSTR PET imaging” (European Journal of Nuclear Medicine and Molecular Imaging, 2025).

What is called tissue uptake is the percentage of the injected dose found per gram of tissue.

For series [1] the following is noted: urine sample collected 4 h after i.v. injection. The protocol: (§1) Mice were sacrificed at 1.5–4.5 h p.i. and perfused with PBS. Organs including brain, heart, lung, liver, kidney, spleen, stomach, intestine, bone, and muscle were collected and weighted. Blood samples were collected via tail vein bleeding at different time points to monitor the residence time of the radiopharmaceuticals in the circulation. After sacrifice, urine was directly collected from the bladder for radio-HPLC analysis of radiopharmaceutical integrity. The radioactivity of each sample was measured using an automated CRC-55tW gamma well counter (Mirion Technologies - Atlanta, GA, USA). Results were expressed as the percentage of injected dose per gram (ID/g) of tissue and presented as the mean ± SEM (N = 3 per radiopharmaceutical).

Series [2] can be described thus: In vitro stability in the final formulation (10% EtOH) by radioHPLC. Type of series: physicochemical. The method, then: The HPLC method used is detailed in Table 1.
The stability of [^61Cu]Cu-NOTA-TATE was tested in the final formulation up to 6 h after EOS. At different time points (T0, T0 + 2, T0 + 4 and T0 + 6 h) aliquots were taken and measured using the previously described radioHPLC method.

A short description of series [3]: in vivo. As to conditions: male, athymic Swiss Foxn1nu, mouse, whole blood, total radioactivity. The protocol:
(§2) A set of fiducial markers was used for an optimal PET/MRI co-registration. The breathing rate and body temperature of the animals were monitored throughout the imaging procedures (SA Instruments SA, USA). After the PET scan, a whole-body MRI was performed on a BioSpec 9.4T MRI scanner with a body volume resonator (transmitter/receiver) with the animal in the same position for anatomical co-localization. Anatomical reference images were obtained from axial and coronal multi-slice scans. A set of fiducial markers were used on the animal bed for an optimal PET/MRI co-registration. Quantitative image processing was performed using PMOD (PMOD, v 3.6; PMOD Technologies, Zürich, Switzerland, RRID: SCR_016547). FUSION Tools were used to deliniate volumes of interest (VOIs) on the PET images co-registered with the anatomical MRI. Blood samples were collected at 1, 2, and 4 h after injection for measurement of whole-blood radioactivity concentrations.
as §1

Series [4] is described as follows: in vivo. The note with it: male, athymic Swiss Foxn1nu, mouse, intravenous, total radioactivity; for tissue uptake at 1 h: AR42J tumor. The protocol: (§3) Animal studies were approved by the Animal Welfare Committee of the Institute for Nuclear Sciences Applied to Health (ICNAS) of University of Coimbra (ORBEA 05-2024) and by the Portuguese National Authority for Animal Health (DGAV). Athymic male Swiss Foxn1nu mice (28–32 g, 6–8 weeks old) were purchased from ICNAS and housed under pathogen free conditions in individually ventilated cages. To establish the tumor model, animals were injected subcutaneously in the left flank with 3 × 10^6 AR42J cells resuspended in 100 µL of PBS 50 with 50% Matrigel. Tumor growth was monitored twice weekly by caliper measurements and were allowed to grow to a maximum volume of 1 cm^3.
as §1

Another series relates to AR42J tumor-bearing mice. The series is described as follows: in vivo. The note with it: AR42J tumor, 4 h p.i., mean ± SEM, N = 3. The protocol: as §3, §1
The test system of series [5] is SSTR-expressing AR42J cells. The experiment in a line: Cell uptake and internalization studies in SSTR-expressing AR42J cells. Type of series: cell-based, rat. The note with it: for Intracellular (internalized) activity: 2 h incubation time, 0.5 nM, Fig. 2C, percentage per million cells; for Maximum total uptake into AR42J: at 2 h, 0.5 nM radiolabeled peptide; for Membrane-bound fraction over time: glycine buffer wash fraction, 15 min to 2 h. The protocol:
The AR42J cell line, a natural SSTR-overexpressing epithelial-like cell isolated from a rat pancreatic tumor, was purchased from American Type Culture Collection (ATCC, CRL-1492) (Manassas, VA, USA) and cultured in F-12 K medium (ATCC, Catalog No. 30-2004) supplemented with 20% heat-inactivated fetal bovine serum (FBS, Gibco) and 1% PenStrep. The cells were maintained under standard adherent conditions in a humidified incubator with 5% CO2 at 37° C.
Cells were incubated at 37 °C for a maximum of 2–4 h (15 min, 30 min, 1 h, 2 h, and 4 h) for ^68Ga-based and ^61Cu-based radiopharmaceuticals, respectively. At the indicated time points, the cellular uptake was terminated by washing the cells with PBS. Cell surface-bound radioactivity was removed by an acid wash (50 mM glycine, pH 2.8) at RT for 5 min. The pH was neutralized with PBS, and the cells were lysed by incubation with 1 M NaOH at 37 °C for 5 min to determine internalized radioactivity. Each experiment was performed in triplicate. […] For blocking studies, parallel experiments were performed as described above, but cells were incubated in the presence of DOTA-TATE precursor (0.5 µM) at 37 °C for the same time points.

In another series the test system is healthy control mice. The series is described as follows: PET/MR imaging in healthy control mice. Format: in vivo. The method, then: as §2
In a further series the test system is tumor. On the set-up: method as in PMID 32297029. The note with it: cited from earlier work.
Series [6] has as its system AR42J subcutaneous tumor-bearing mice. As to conditions: 1 h p.i., i.v. The method, then: as §3
as §2, with “Anatomical reference images were obtained from axial and coronal multi-slice scans. A set of fiducial markers were used on the animal bed for an optimal PET/MRI co-registration.” left out, “FUSION Tools were used to deliniate volumes of interest (VOIs) on the PET images co-registered with the anatomical MRI.” left out

Turning to `C[C@@H](O)[C@H](NC(=O)[C@@H]1CSSC[C@H](NC(=O)[C@@H](Cc2ccccc2)NC(=O)CN2CCN(CC(=O)O)CCN(CC(=O)O)CC2)C(=O)N[C@@H](Cc2ccc(O)cc2)C(=O)N[C@H](Cc2c[nH]c3ccccc23)C(=O)N[C@@H](CCCCN)C(=O)N[C@@H]([C@@H](C)O)C(=O)N1)C(=O)O` [[^61Cu]Cu-NOTA-TATE, metal not drawn], the “Intact radiopharmaceutical in urine (radioHPLC)” value in series [1] is 100%. The “Time stable after EOS” value in series [2] (after the EOS) is reported as “at least 6 h”. Further, in [2] (final formulation (10% EtOH), after 6 h of incubation), the “In vitro stability (radiochemical purity by radioHPLC)” value is given as over 95%. Further, in the series “in vivo [3]” (intravenous), the tissue uptake at 2 h is 0.13 ± 0.02 %ID/g and the tissue uptake at 4 h stood at 0.09 ± 0.004 %ID/g. The tissue uptake at 1 h in “in vivo [3]” (iv) is 0.19 ± 0.003 %ID/g. In addition, the tissue uptake at 1 h in the series “in vivo [4]” came to 13.2 ± 1.86 %ID/g. Besides, in “in vivo [4]” (tumor and kidney), the tissue to tissue ratio at 1 h turned out to be 4.25 ± 1.09 and the tissue to tissue ratio at 4 h amounted to 17.3 ± 4.99. Moreover, in “in vivo [4]” (tumor and liver), the tissue to tissue ratio at 1 h is 14.1 ± 4.29 and the tissue to tissue ratio at 4 h came to 21 ± 1.28. Besides, in “in vivo [4]” (tumor and muscle), the tissue to tissue ratio at 1 h came to 255 ± 64.7 and the tissue to tissue ratio at 4 h stood at 495 ± 109. Further, in the series on AR42J tumor-bearing mice, the “Tumor uptake (tumor activity)” value came to 12.81 ± 0.57 % ID/g. Also, in series [5], the “Intracellular (internalized) activity” value is reported as 51.4%, the “Maximum total uptake into AR42J” value is on record as 58.6 ± 3.6 %/10^6 cells and the “Membrane-bound fraction over time” value is listed as at most 10%. Moreover, the “Biodistribution profile in PET/MR images” value in the series with healthy control mice (healthy control mice, 1 h and 4 h p.i.) is “rapid clearance with marked accumulation in the kidneys and bladder”.
For `C[C@@H](O)[C@H](NC(=O)[C@@H]1CSSC[C@H](NC(=O)[C@@H](Cc2ccccc2)NC(=O)CN2CCN(CC(=O)O)CCN(CC(=O)O)CCN(CC(=O)O)CC2)C(=O)N[C@@H](Cc2ccc(O)cc2)C(=O)N[C@H](Cc2c[nH]c3ccccc23)C(=O)N[C@@H](CCCCN)C(=O)N[C@@H]([C@@H](C)O)C(=O)N1)C(=O)O` [[^68Ga]Ga-DOTA-TATE, metal not drawn, reference compound], in the series on tumor, the Tumor uptake is on record as 3.14 ± 2.07%. In the series “in vivo [4]”, the tissue uptake at 1 h stood at 8.73 ± 0.45 %ID/g. In series [5], the “Intracellular (internalized) activity” value is reported as 51.2%, the “Maximum total uptake into AR42J” value turned out to be 62.5 ± 1.9 %/10^6 cells and the “Membrane-bound fraction over time” value is listed as at most 10%. Besides, in series [6], the “Biodistribution profile in PET/MR images” value was “significant tumor and bladder accumulation”.
Take `[Cl][Cu][Cl]` [[^61Cu]CuCl2, copper chloride, reference compound]: the “Biodistribution profile in PET/MR images” value in the series with healthy control mice (healthy mice, 1 h after injection) is “accumulation profile of free copper in the liver and the intestine”.
